Here are results for six molecules from patent publication US20210017257A1 (XBIOTECH, published 2021).

This test concerns the target T1, Staphylococcus aureus protein A (SpA), commercial wildtype (Staphylococcus aureus, UniProt A0A0H3K686 37-477, limits assumed).
T1 construct: also called wildtype SpA; antigen
Kind of test: Bio-Layer Interferometry (ForteBio Octet Red 96), 20 nM antigen; BLI, 20 nM antigen.

T1 sequence (A0A0H3K686 37-477 limits assumed): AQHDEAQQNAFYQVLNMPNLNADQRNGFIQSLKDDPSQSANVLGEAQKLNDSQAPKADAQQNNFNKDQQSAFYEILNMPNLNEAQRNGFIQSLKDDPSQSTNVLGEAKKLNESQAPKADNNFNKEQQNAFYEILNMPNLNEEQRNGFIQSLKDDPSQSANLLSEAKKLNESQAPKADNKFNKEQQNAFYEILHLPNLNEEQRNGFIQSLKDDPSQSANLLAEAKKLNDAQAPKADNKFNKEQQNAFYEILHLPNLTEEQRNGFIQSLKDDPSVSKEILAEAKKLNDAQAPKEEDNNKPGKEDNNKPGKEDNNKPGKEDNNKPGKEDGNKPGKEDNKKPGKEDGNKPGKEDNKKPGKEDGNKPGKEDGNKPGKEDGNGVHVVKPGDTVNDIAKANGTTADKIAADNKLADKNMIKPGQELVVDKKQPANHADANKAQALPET

B1: PA15-G3 Ab (antibody, human IgG3, kappa)
heavy: EVQLVETGGGLVRPGGSLRLSCAASGLTFSTFAMNWVRQAPGKGLEWVSSISGSGGSTYYADSVKGRFTISRDNAKNTVYLQMNSLRAEDTAVYYCARDFNWDSGTMDLWGQGTTVTVSPASTKGPSVFPLAPCSRSTSGGTAALGCLVKDYFPEPVTVSWNSGALTSGVHTFPAVLQSSGLYSLSSVVTVPSSSLGTQTYTCNVNHKPSNTKVDKRVELKTPLGDTTHTCPRCPEPKSCDTPPPCPRCPEPKSCDTPPPCPRCPEPKSCDTPPPCPRCPAPELLGGPSVFLFPPKPKDTLMISRTPEVTCVVVDVSHEDPEVQFKWYVDGVEVHNAKTKPREEQYNSTFRVVSVLTVLHQDWLNGKEYKCKVSNKALPAPIEKTISKTKGQPREPQVYTLPPSREEMTKNQVSLTCLVKGFYPSDIAVEWESSGQPENNYNTTPPMLDSDGSFFLYSKLTVDKSRWQQGNIFSCSVMHEALHNRFTQKSLSLSPGK
light: not shown
notes: Human IgG3
As for B1, the Kd was below 1 pM.

B2: PA32-G3 Ab (antibody, human IgG3, kappa)
heavy: EVQLVETGGGLAQPGGSLRLSCAASGFIFSDYYMDWVRQAPGKGPEWVASIKADGSETHYVDSVKGRFTISRDNAKNSLYLQMNSLRVEDTAVYYCGRDPGRRFDYWGQGTLVTVSSASTKGPSVFPLAPCSRSTSGGTAALGCLVKDYFPEPVTVSWNSGALTSGVHTFPAVLQSSGLYSLSSVVTVPSSSLGTQTYTCNVNHKPSNTKVDKRVELKTPLGDTTHTCPRCPEPKSCDTPPPCPRCPEPKSCDTPPPCPRCPEPKSCDTPPPCPRCPAPELLGGPSVFLFPPKPKDTLMISRTPEVTCVVVDVSHEDPEVQFKWYVDGVEVHNAKTKPREEQYNSTFRVVSVLTVLHQDWLNGKEYKCKVSNKALPAPIEKTISKTKGQPREPQVYTLPPSREEMTKNQVSLTCLVKGFYPSDIAVEWESSGQPENNYNTTPPMLDSDGSFFLYSKLTVDKSRWQQGNIFSCSVMHEALHNRFTQKSLSLSPGK
light: not shown
notes: Human IgG3
In turn, B2 came in with a Kd below 1 pM.

B3: PA27-G3 Ab (antibody, human IgG3, kappa)
heavy: QVQLVESGGGLVQPGGSLRLSCAASGFTFSKYGMSWVRQAPGKGLEWVSTISGSGFTTYYADSVKGRFTISRDDFKNTLYLQMNSLRAEDTAVYYCAKDGWDYEDFFGSWGQGTLVTVSSASTKGPSVFPLAPCSRSTSGGTAALGCLVKDYFPEPVTVSWNSGALTSGVHTFPAVLQSSGLYSLSSVVTVPSSSLGTQTYTCNVNHKPSNTKVDKRVELKTPLGDTTHTCPRCPEPKSCDTPPPCPRCPEPKSCDTPPPCPRCPEPKSCDTPPPCPRCPAPELLGGPSVFLFPPKPKDTLMISRTPEVTCVVVDVSHEDPEVQFKWYVDGVEVHNAKTKPREEQYNSTFRVVSVLTVLHQDWLNGKEYKCKVSNKALPAPIEKTISKTKGQPREPQVYTLPPSREEMTKNQVSLTCLVKGFYPSDIAVEWESSGQPENNYNTTPPMLDSDGSFFLYSKLTVDKSRWQQGNIFSCSVMHEALHNRFTQKSLSLSPGK
light: DIQMTQSPSSLSASVGDRVTITCRASQSISSYLNWYQQKPGKAPKLLIYAASSLQSGVPSRFSGSGSGTEFTLTITNLQPEDFGTYYCQQSYAFPYTFGQGTRLEIKRTVAAPSVFIFPPSDEQLKSGTASVVCLLNNFYPREAKVQWKVDNALQSGNSQESVTEQDSKDSTYSLSSTLTLSKADYEKHKVYACEVTHQGLSSPVTKSFNRGEC
notes: Human IgG3
For the molecule B3, the Kd is below 1 pM.

B4: PA21-G3 Ab (antibody, human IgG3, kappa)
heavy: EVQLVESGGGVVQPGGSLRLSCAASGFTFSSYGMHWVRQAPGKGLEWVSGISGDAGSTYYADSVKGRFTISRDNSKNTLYLQMNSLRAEDMAVYYCARVMNYYGPGSAFDYWGQGTLVTVSSASTKGPSVFPLAPCSRSTSGGTAALGCLVKDYFPEPVTVSWNSGALTSGVHTFPAVLQSSGLYSLSSVVTVPSSSLGTQTYTCNVNHKPSNTKVDKRVELKTPLGDTTHTCPRCPEPKSCDTPPPCPRCPEPKSCDTPPPCPRCPEPKSCDTPPPCPRCPAPELLGGPSVFLFPPKPKDTLMISRTPEVTCVVVDVSHEDPEVQFKWYVDGVEVHNAKTKPREEQYNSTFRVVSVLTVLHQDWLNGKEYKCKVSNKALPAPIEKTISKTKGQPREPQVYTLPPSREEMTKNQVSLTCLVKGFYPSDIAVEWESSGQPENNYNTTPPMLDSDGSFFLYSKLTVDKSRWQQGNIFSCSVMHEALHNRFTQKSLSLSPGK
light: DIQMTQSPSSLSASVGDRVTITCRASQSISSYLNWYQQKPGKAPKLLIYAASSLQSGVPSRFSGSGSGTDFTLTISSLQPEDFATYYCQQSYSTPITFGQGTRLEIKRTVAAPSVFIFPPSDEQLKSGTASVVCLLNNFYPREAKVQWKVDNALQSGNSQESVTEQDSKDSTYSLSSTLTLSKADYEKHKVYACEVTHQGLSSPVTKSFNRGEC
notes: Human IgG3
B4 gave a Kd below 1 pM.

B5: PA37-G3 Ab (antibody, human IgG3, kappa)
heavy: EVQLLESGGGLVQPGGSRRLSCATSGLSFSSYAMNWVRQAPGKGLEWVSAISGSGDITHYADSVKGRLTISRDNSKNTVYLQMNSLRGEDTAVYYCAKGPWLAPGGWFDPWGQGTLVTVSSASTKGPSVFPLAPCSRSTSGGTAALGCLVKDYFPEPVTVSWNSGALTSGVHTFPAVLQSSGLYSLSSVVTVPSSSLGTQTYTCNVNHKPSNTKVDKRVELKTPLGDTTHTCPRCPEPKSCDTPPPCPRCPEPKSCDTPPPCPRCPEPKSCDTPPPCPRCPAPELLGGPSVFLFPPKPKDTLMISRTPEVTCVVVDVSHEDPEVQFKWYVDGVEVHNAKTKPREEQYNSTFRVVSVLTVLHQDWLNGKEYKCKVSNKALPAPIEKTISKTKGQPREPQVYTLPPSREEMTKNQVSLTCLVKGFYPSDIAVEWESSGQPENNYNTTPPMLDSDGSFFLYSKLTVDKSRWQQGNIFSCSVMHEALHNRFTQKSLSLSPGK
light: not shown
notes: Human IgG3
The molecule B5 returned a Kd below 1 pM.

B6: PA7.2-G3 Ab (antibody, human IgG3, kappa)
heavy: EVQLVESRGGLVQPGGSLRLSCAASGFTFSNYAMSWVRQAPGKGLEWVSTISGSDGGTYYADSVKGRFTISRDNSGNTVYLQMNSLREDDTAVYYCARVGLSAPVTFFDFWGQGTLVTVSSASTKGPSVFPLAPCSRSTSGGTAALGCLVKDYFPEPVTVSWNSGALTSGVHTFPAVLQSSGLYSLSSVVTVPSSSLGTQTYTCNVNHKPSNTKVDKRVELKTPLGDTTHTCPRCPEPKSCDTPPPCPRCPEPKSCDTPPPCPRCPEPKSCDTPPPCPRCPAPELLGGPSVFLFPPKPKDTLMISRTPEVTCVVVDVSHEDPEVQFKWYVDGVEVHNAKTKPREEQYNSTFRVVSVLTVLHQDWLNGKEYKCKVSNKALPAPIEKTISKTKGQPREPQVYTLPPSREEMTKNQVSLTCLVKGFYPSDIAVEWESSGQPENNYNTTPPMLDSDGSFFLYSKLTVDKSRWQQGNIFSCSVMHEALHNRFTQKSLSLSPGK
light: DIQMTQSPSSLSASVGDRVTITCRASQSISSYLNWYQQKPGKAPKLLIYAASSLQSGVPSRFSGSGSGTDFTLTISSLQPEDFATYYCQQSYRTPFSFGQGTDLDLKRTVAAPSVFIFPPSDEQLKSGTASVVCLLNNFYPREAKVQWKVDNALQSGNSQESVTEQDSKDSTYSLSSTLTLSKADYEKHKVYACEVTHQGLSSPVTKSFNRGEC
notes: Human IgG3
Consider B6, for which the equilibrium dissociation constant (Kd) is below 1 pM.
